“And” between values parts separate entries of the source, which are not always exact repeats. Equal values may be shown once.
Biological target: HRgpA-6H (Porphyromonas gingivalis) (UniProt P28784)
Assay: ELISA, Fab FASEBA supernatant on coated HRgpA-6H

Sequence of UniProt P28784 (P28784 228-991 limits assumed): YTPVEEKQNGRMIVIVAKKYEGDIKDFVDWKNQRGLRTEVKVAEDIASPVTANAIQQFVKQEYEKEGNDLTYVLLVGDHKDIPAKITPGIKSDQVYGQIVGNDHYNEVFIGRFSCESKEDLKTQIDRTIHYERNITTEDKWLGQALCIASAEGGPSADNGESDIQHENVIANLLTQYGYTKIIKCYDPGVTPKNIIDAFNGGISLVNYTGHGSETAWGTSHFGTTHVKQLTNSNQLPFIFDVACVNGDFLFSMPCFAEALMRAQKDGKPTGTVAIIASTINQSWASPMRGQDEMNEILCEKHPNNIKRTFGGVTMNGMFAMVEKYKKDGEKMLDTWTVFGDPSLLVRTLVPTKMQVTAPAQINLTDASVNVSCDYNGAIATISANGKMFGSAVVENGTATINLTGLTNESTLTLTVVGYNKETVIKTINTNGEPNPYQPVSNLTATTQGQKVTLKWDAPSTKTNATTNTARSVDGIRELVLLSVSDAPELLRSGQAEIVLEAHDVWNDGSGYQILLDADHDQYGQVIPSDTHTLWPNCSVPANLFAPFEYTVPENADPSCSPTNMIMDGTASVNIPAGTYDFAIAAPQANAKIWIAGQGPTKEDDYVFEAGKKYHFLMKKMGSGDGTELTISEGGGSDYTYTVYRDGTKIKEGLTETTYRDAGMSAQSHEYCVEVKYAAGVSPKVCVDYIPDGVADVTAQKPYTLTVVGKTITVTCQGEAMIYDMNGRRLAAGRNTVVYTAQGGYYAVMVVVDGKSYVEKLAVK

Binder | OD450nm | Ratio OD(Variant)/OD(WT)
parental mouse (KB001) Fab FASEBA, VL variant S57W (Fab, V domains shown) VH: EVQLKQSGPGLVAPSQSLSITCTVSGFSLSIYSVHWVRQPPGKGLEWLGMIWGGGSSDYNSALKSRLSISKDNSKSQVFLKMNSLQTDDTAMYYCARNGNFYAMDYWGQGTSVTVSS VL: QIVLTQSPAIMSASLGERVTMTCTASSSVSSSFLHWYQQKPGSSPQLWIYSTSNLAWGVPARFSGSGSGTSYSLTISSMEAEDAATYYCHQYHHSPYIYTFGGGTKLEIK | 0.784 OD450nm | 0.961 ratio to WT
parental mouse (KB001) Fab FASEBA, VL variant Q91E (Fab, V domains shown) VH: EVQLKQSGPGLVAPSQSLSITCTVSGFSLSIYSVHWVRQPPGKGLEWLGMIWGGGSSDYNSALKSRLSISKDNSKSQVFLKMNSLQTDDTAMYYCARNGNFYAMDYWGQGTSVTVSS VL: QIVLTQSPAIMSASLGERVTMTCTASSSVSSSFLHWYQQKPGSSPQLWIYSTSNLASGVPARFSGSGSGTSYSLTISSMEAEDAATYYCHEYHHSPYIYTFGGGTKLEIK | 0.709 OD450nm and 0.694 OD450nm and 0.701 OD450nm | 0.823 ratio to WT and 0.806 ratio to WT and 0.814 ratio to WT
parental mouse (KB001) Fab FASEBA, VL variant H90W (Fab, V domains shown) VH: EVQLKQSGPGLVAPSQSLSITCTVSGFSLSIYSVHWVRQPPGKGLEWLGMIWGGGSSDYNSALKSRLSISKDNSKSQVFLKMNSLQTDDTAMYYCARNGNFYAMDYWGQGTSVTVSS VL: QIVLTQSPAIMSASLGERVTMTCTASSSVSSSFLHWYQQKPGSSPQLWIYSTSNLASGVPARFSGSGSGTSYSLTISSMEAEDAATYYCWQYHHSPYIYTFGGGTKLEIK | 0.763 OD450nm | 0.886 ratio to WT
parental mouse (KB001) Fab FASEBA, VL variant Q91M (Fab, V domains shown) VH: EVQLKQSGPGLVAPSQSLSITCTVSGFSLSIYSVHWVRQPPGKGLEWLGMIWGGGSSDYNSALKSRLSISKDNSKSQVFLKMNSLQTDDTAMYYCARNGNFYAMDYWGQGTSVTVSS VL: QIVLTQSPAIMSASLGERVTMTCTASSSVSSSFLHWYQQKPGSSPQLWIYSTSNLASGVPARFSGSGSGTSYSLTISSMEAEDAATYYCHMYHHSPYIYTFGGGTKLEIK | 0.757 OD450nm | 0.879 ratio to WT
parental mouse (KB001) Fab FASEBA, VL variant S57E (Fab, V domains shown) VH: EVQLKQSGPGLVAPSQSLSITCTVSGFSLSIYSVHWVRQPPGKGLEWLGMIWGGGSSDYNSALKSRLSISKDNSKSQVFLKMNSLQTDDTAMYYCARNGNFYAMDYWGQGTSVTVSS VL: QIVLTQSPAIMSASLGERVTMTCTASSSVSSSFLHWYQQKPGSSPQLWIYSTSNLAEGVPARFSGSGSGTSYSLTISSMEAEDAATYYCHQYHHSPYIYTFGGGTKLEIK | 0.751 OD450nm | 0.921 ratio to WT
parental mouse (KB001) Fab FASEBA, VL variant S57M (Fab, V domains shown) VH: EVQLKQSGPGLVAPSQSLSITCTVSGFSLSIYSVHWVRQPPGKGLEWLGMIWGGGSSDYNSALKSRLSISKDNSKSQVFLKMNSLQTDDTAMYYCARNGNFYAMDYWGQGTSVTVSS VL: QIVLTQSPAIMSASLGERVTMTCTASSSVSSSFLHWYQQKPGSSPQLWIYSTSNLAMGVPARFSGSGSGTSYSLTISSMEAEDAATYYCHQYHHSPYIYTFGGGTKLEIK | 0.745 OD450nm | 0.914 ratio to WT
parental mouse (KB001) Fab FASEBA, VL variant S57R (Fab, V domains shown) VH: EVQLKQSGPGLVAPSQSLSITCTVSGFSLSIYSVHWVRQPPGKGLEWLGMIWGGGSSDYNSALKSRLSISKDNSKSQVFLKMNSLQTDDTAMYYCARNGNFYAMDYWGQGTSVTVSS VL: QIVLTQSPAIMSASLGERVTMTCTASSSVSSSFLHWYQQKPGSSPQLWIYSTSNLARGVPARFSGSGSGTSYSLTISSMEAEDAATYYCHQYHHSPYIYTFGGGTKLEIK | 0.746 OD450nm | 0.915 ratio to WT
parental mouse (KB001) Fab FASEBA, VL variant H90L (Fab, V domains shown) VH: EVQLKQSGPGLVAPSQSLSITCTVSGFSLSIYSVHWVRQPPGKGLEWLGMIWGGGSSDYNSALKSRLSISKDNSKSQVFLKMNSLQTDDTAMYYCARNGNFYAMDYWGQGTSVTVSS VL: QIVLTQSPAIMSASLGERVTMTCTASSSVSSSFLHWYQQKPGSSPQLWIYSTSNLASGVPARFSGSGSGTSYSLTISSMEAEDAATYYCLQYHHSPYIYTFGGGTKLEIK | 0.785 OD450nm and 0.694 OD450nm | 0.911 ratio to WT and 0.806 ratio to WT

Source: patent publication US20230365662A1
